Results published in patent US20130045191A1 (IMMATICS BIOTECHNOLOGIES, published 2013).

Biological target: T1, HLA A*024 (human)
T1 construct: also called HLA A*024 alleles; HLA-A*24
Assay: HLA immunoprecipitation from tumour tissue, LC-MS (Example 1)

- binding result: binds
Binder: LYQILQGIVF [CDC2-001]
